# Experimental data reported in patent US20250041379A1, “METHODS AND COMPOSITIONS FOR THE TREATMENT OF CANCER” (Vigeo Therapeutics, Inc., priority 2021, published 2025).
# No end group written: not given here.
# Key:
# [1] = tested on: subjects with pancreatic cancer; test: Phase I/II clinical study (NCT03364400): adverse events in subjects with pancreatic cancer; type: in vivo, human
# Method: VT1021 was evaluated in a recently completed phase I/II open-label, multicenter, dose escalation (Part 1) and expansion (Part 2) clinical study in advanced, refractory, solid tumors including pancreatic cancer (NCT03364400). Seven subjects with pancreatic cancer were dosed in Part 1 and 32 were dosed in Part 2, 17 of which were considered evaluable as having completed ≥1 cycle of VT1021 treatment and tumor imaging during cycle 2. […] In the “expansion stage” of the VT1021-01 Study, subjects diagnosed with recurrent GBM, pancreatic cancer, ovarian cancer and other solid tumors were enrolled. They were treated with VT1021 at 11.8 mg/kg, twice weekly by IV infusion. The blood samples were collected from the clinical study at pre-treatment, 0, 2, 4, 6 hours post treatment to measure the levels of VT1021 (FIG. 2). The tumor biopsy samples prior to treatment and during treatment were collected from the clinical study to measure expression levels of biomarkers including CD36 and CD47, as well as cell surface markers for immune cell populations in the TME by immunohistochemistry assays (FIG. 3, FIG. 4, FIG. 5). The correlation between days on study and tumor shrinkage versus expression profile of CD36 and CD47 was analyzed (FIG. 4). The general expression profile of CD36 and CD47 has been assessed by IHC on Tumor Tissue Microarrays (TMAs), which contain biopsy samples collected from pancreatic cancer patients. TMAs were purchased from commercial sources, not related to the VT1021-01 clinical study. Common adverse effects (AEs) in escalation subjects with pancreatic cancer (Part 1) are shown in Table 1 The AEs shown occurred in 2 or more subjects, all cycles, maximum grade, regardless of toxicity). Of 39 pancreatic cancer subjects enrolled and dosed, 7 subjects were enrolled in the Part 1 escalation cohort. All 7 subjects reported at least one AE (regardless of causality). Four subjects had at least one AE, which was probably or possibly related to the study drug. […] Five subjects reported at least one severe adverse event (SAE) (regardless of causality). Two subjects had SAEs definitely or possibly related to study drug: infusion related reaction (grade 3), altered mental status (grade 2). Thirty-two subjects were enrolled in the Part 2 […] cohort. Thirty subjects reported at least one AE (regardless of causality). Eighteen subjects had at least one AE definitely, probably or possibly related to the study drug. Twenty subjects reported at least one SAE (regardless of causality). Two subjects had SAEs possibly related to study drug: thrombosis (grade 3), fever (grade 1)
# [2] = tested on: circulating immune cells (CTLs, helper T cells, MDSCs); test: Flow cytometry of immune cells isolated from whole blood of rGBM subjects; type: in vivo, human; settings: Cycle 1 Day 1
# Description: FIG. 11A, FIG. 11B, FIG. 11C, FIG. 11D, FIG. 11E, and FIG. 11F are charts showing modulation of the immune system by VT1021 in circulation and in the TME. […] Proliferating CTLs increased ≥1.5 fold regardless of clinical response, proliferating helper T cells increased ≥1.5 fold in CR/PR and PD subjects while monocytic MDSCs (mMDSCs) and activated MDSCs decreased≤0.5 fold in all evaluable subjects. […] Percent of M1 increased 1.9-fold while M2 decreased 0.6-fold after treatment. […] CTLs increased >4 fold while total and mMDSCs […] >15 fold in the on-study biopsy compared to pre-treatment.
# pancreatic cancer = test: Example 3: treatment of pancreatic cancer with dually elevated CD36 and CD47; type: in vivo; settings: expected
# Method: (§1) Subjects having pancreatic cancer are identified using standard clinical protocols. Samples are obtained and levels of CD36 and CD47 measured using methods known in the art. Subjects presenting with dually elevated CD36 and CD47 levels as compared to suitable controls are selected for dosing with VT1021. Subjects advancing to the treatment phase are administered VT1021. Frequency and dosage are determined in accordance with the stage and severity of disease accordingly to methods standard in the art. Tumor burden and other disease indicators are measured and data compiled using methods known in the art.
# GBM = test: Example 4: treatment of GBM with dually elevated CD36 and CD47; type: in vivo; settings: expected
# Method: as §1, with “GBM” for “pancreatic cancer”
# [3] = Part 1 escalation cohort, 7 pancreatic cancer subjects
# [4] = Part 1 escalation, pancreatic cancer, all cycles, maximum grade
# [5] = Part 2 cohort, 32 pancreatic cancer subjects
# [6] = Part 2 expansion, pancreatic cancer, all cycles, maximum grade
# [7] = whole blood before and after 6 hours, all evaluable subjects, decreased
substance,measurement,setting,value
"cyclic DWLPK (also: cyclic, mode of cyclisation not given here) [VT1021, 5-amino acid cyclic peptide from prosaposin; Tsp-1-inducing agent]","Urinary tract infection (AE), Grade 2",[1],2 subjects
same,subjects with SAEs definitely or possibly related to study drug,"[1]; Part 1, 7 pancreatic cancer subjects, infusion related reaction (grade 3), altered mental status (grade 2)",Two
same,dose-limiting toxicity,[1]; [3],no dose-limiting toxicity
same,subjects reporting at least one AE (regardless of causality),[1]; [3],7 subjects
same,subjects reporting at least one severe adverse event (SAE) (regardless of causality),[1]; [3],Five
same,subjects with at least one AE probably or possibly related to the study drug,[1]; [3],Four
same,"Abdominal pain (AE), Grade 1",[1]; [4],3 subjects
same,"Abdominal pain (AE), Grade 3",[1]; [4],1 subjects
same,"Abdominal pain (AE), Total",[1]; [4],4 subjects
same,"Constipation (AE), Grade 1",[1]; [4],1 subjects
same,"Constipation (AE), Grade 3",[1]; [4],1 subjects
same,"Constipation (AE), Total",[1]; [4],2 subjects
same,"Fatigue (AE), Grade 1",[1]; [4],2 subjects
same,"Fatigue (AE), Total",[1]; [4],2 subjects
same,"Infusion related reaction (AE), Grade 2",[1]; [4],1 subjects
same,"Infusion related reaction (AE), Grade 3",[1]; [4],1 subjects
same,"Infusion related reaction (AE), Total",[1]; [4],2 subjects
same,"Nausea (AE), Grade 1",[1]; [4],2 subjects
same,"Nausea (AE), Total",[1]; [4],2 subjects
same,"Thrombosis (AE), Grade 3",[1]; [4],2 subjects
same,"Thrombosis (AE), Total",[1]; [4],2 subjects
same,subjects with SAEs possibly related to study drug,"[1]; Part 2, 32 pancreatic cancer subjects, thrombosis (grade 3), fever (grade 1)",Two
same,subjects reporting at least one AE (regardless of causality),[1]; [5],Thirty
same,subjects reporting at least one SAE (regardless of causality),[1]; [5],Twenty
same,"subjects with at least one AE definitely, probably or possibly related to the study drug",[1]; [5],Eighteen
same,"Abdominal pain (AE), Grade 1",[1]; [6],3 subjects
same,"Abdominal pain (AE), Grade 2",[1]; [6],9 subjects
same,"Abdominal pain (AE), Grade 3",[1]; [6],4 subjects
same,"Abdominal pain (AE), Total",[1]; [6],16 subjects
same,"Alanine aminotransferase increased (AE), Grade 1",[1]; [6],4 subjects
same,"Alanine aminotransferase increased (AE), Grade 3",[1]; [6],2 subjects
same,"Alanine aminotransferase increased (AE), Total",[1]; [6],6 subjects
same,"Anaemia (AE), Grade 1",[1]; [6],4 subjects
same,"Anaemia (AE), Grade 2",[1]; [6],2 subjects
same,"Anaemia (AE), Grade 3",[1]; [6],1 subjects
same,"Anaemia (AE), Total",[1]; [6],7 subjects
same,"Aspartate aminotransferase increased (AE), Grade 1",[1]; [6],2 subjects
same,"Aspartate aminotransferase increased (AE), Grade 2",[1]; [6],2 subjects
same,"Aspartate aminotransferase increased (AE), Grade 3",[1]; [6],2 subjects
same,"Aspartate aminotransferase increased (AE), Total",[1]; [6],6 subjects
same,"Blood bilirubin increased (AE), Grade 2",[1]; [6],3 subjects
same,"Blood bilirubin increased (AE), Grade 3",[1]; [6],4 subjects
same,"Blood bilirubin increased (AE), Total",[1]; [6],7 subjects
same,"Constipation (AE), Grade 1",[1]; [6],4 subjects
same,"Constipation (AE), Grade 2",[1]; [6],4 subjects
same,"Constipation (AE), Total",[1]; [6],8 subjects
same,"Decreased appetite (AE), Grade 1",[1]; [6],7 subjects
same,"Decreased appetite (AE), Grade 2",[1]; [6],2 subjects
same,"Decreased appetite (AE), Grade 3",[1]; [6],2 subjects
same,"Decreased appetite (AE), Total",[1]; [6],11 subjects
same,"Diarrhoea (AE), Grade 1",[1]; [6],5 subjects
same,"Diarrhoea (AE), Grade 2",[1]; [6],3 subjects
same,"Diarrhoea (AE), Total",[1]; [6],8 subjects
same,"Fatigue (AE), Grade 1",[1]; [6],3 subjects
same,"Fatigue (AE), Grade 2",[1]; [6],8 subjects
same,"Fatigue (AE), Grade 3",[1]; [6],3 subjects
same,"Fatigue (AE), Total",[1]; [6],14 subjects
same,"Insomnia (AE), Grade 1",[1]; [6],6 subjects
same,"Insomnia (AE), Total",[1]; [6],6 subjects
same,"Nausea (AE), Grade 1",[1]; [6],10 subjects
same,"Nausea (AE), Grade 2",[1]; [6],3 subjects
same,"Nausea (AE), Grade 3",[1]; [6],1 subjects
same,"Nausea (AE), Total",[1]; [6],14 subjects
same,"Pyrexia (AE), Grade 1",[1]; [6],6 subjects
same,"Pyrexia (AE), Total",[1]; [6],6 subjects
same,"Urinary tract infection (AE), Total","[1]; human, in vivo",2 subjects
same,major adverse events (AEs),"[1]; phase I/II study, solid tumors including pancreatic cancer",no major adverse events
same,"Proliferating CTLs, fold change","[2]; whole blood before and after 6 hours of treatment, regardless of clinical response, increased",≥ 1.5 fold
same,"proliferating helper T cells, fold change","[2]; whole blood before and after 6 hours, CR/PR and PD subjects, increased",≥ 1.5 fold
same,"activated MDSCs, fold change",[2]; [7],≤ 0.5 fold
same,"monocytic MDSCs (mMDSCs), fold change",[2]; [7],≤ 0.5 fold
same,tumor burden compared to control subjects,pancreatic cancer,reduction in tumor burden
same,tumor burden compared to control subjects,GBM,reduction in tumor burden
